According to the supplement of paper PMC7125110:
± gives the standard error. For some of these results: This sample holds only a part of the variants without activity.

B1: glmS ribozyme (parent)
chain: AUAAAAGCGCCAGAACUACAGAAAUGUAGUUGACGAGGAGGAGGUUUAUCGAAUUUUCGGCGGAUGCCUCCAAA

What was measured:
Details in all cases: with glucosamine-6-phosphate
glucosamine-6-phosphate [1] = variants of: B1; experiment: kcat; higher = faster cleavage; RNA array
How it was run: (§1)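 Weighted Michaelis–Menten fits across concentrations supplied kcat and KM, based on kobs from one- or two-exponential decay fits to normalised per-tile medians. The data came from barcoded ribozyme variants transcribed in situ by E. coli RNA polymerase on sequenced MiSeq chips and tracked at 37 °C by a hybridised Cy3 probe. Glucosamine-6-phosphate (40 μM to 10 mM) in HEPES/KCl/Mg(OAc)2 buffer was flowed in.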

glucosamine-6-phosphate [2] = variants of: B1; experiment: KM; higher = weaker cofactor use; RNA array
How it was run: as §1

glucosamine-6-phosphate [3] = variants of: B1; experiment: self-cleavage kobs at 160 uM GlcN6P; higher = faster cleavage; RNA array
How it was run: as §1

glucosamine-6-phosphate [4] = variants of: B1; experiment: self-cleavage kobs at 640 uM GlcN6P; higher = faster cleavage; RNA array
How it was run: as §1

glucosamine-6-phosphate [5] = variants of: B1; experiment: self-cleavage kobs at 2500 uM GlcN6P; higher = faster cleavage; RNA array
How it was run: as §1

glucosamine-6-phosphate [6] = variants of: B1; experiment: self-cleavage kobs at 10000 uM GlcN6P; higher = faster cleavage; RNA array
How it was run: as §1

glucosamine-6-phosphate [7] = variants of: B1; experiment: self-cleavage kobs at 40 uM GlcN6P; higher = faster cleavage; RNA array
How it was run: as §1

| Variant | kcat (glucosamine-6-phosphate [1]) [s⁻¹] | KM (glucosamine-6-phosphate [2]) [µM] | self-cleavage kobs at 160 uM GlcN6P (glucosamine-6-phosphate [3]) [s⁻¹] | self-cleavage kobs at 640 uM GlcN6P (glucosamine-6-phosphate [4]) [s⁻¹] | self-cleavage kobs at 2500 uM GlcN6P (glucosamine-6-phosphate [5]) [s⁻¹] | self-cleavage kobs at 10000 uM GlcN6P (glucosamine-6-phosphate [6]) [s⁻¹] | self-cleavage kobs at 40 uM GlcN6P (glucosamine-6-phosphate [7]) [s⁻¹] |
| --- | --- | --- | --- | --- | --- | --- | --- |
| A15G G44A | 0.000572 ± 0.00011 | 2050 ± 620 | 2.81e-05 ± 1.2e-05 | 0.000152 ± 2.1e-05 | 0.000327 ± 5.5e-05 | 0.00044 ± 9.5e-05 |  |
| C16A U46G A48G C50U C67A | 1.04e-05 ± 4.5e-06 |  |  |  |  |  |  |
| G62U U69A | 2.59e-05 ± 3.9e-06 |  |  |  |  |  |  |
| U31A G44A | 0.00023 ± 5.7e-05 | 4780 ± 2400 |  |  | 9.2e-05 ± 1.5e-05 | 0.000151 ± 2.1e-05 |  |
| A12G C58G | 0.000117 ± 1.9e-05 |  |  |  | 7.99e-05 ± 1.2e-05 | 9.48e-05 ± 9.8e-06 |  |
| A14U C50G | 0.000106 ± 3e-05 |  | 0.000164 ± 3e-05 |  | 9.1e-05 ± 1.6e-05 | 0.000112 ± 5e-05 | 4.12e-05 ± 1.3e-05 |
| A48G C61U | 3e-05 ± 9.3e-06 |  |  |  |  |  | < 1e-05 |
| A39G U55C | 0.0858 ± 0.023 | 3000 ± 920 | 0.00406 ± 0.0011 | 0.0122 ± 0.0029 |  | 0.0709 ± 0.018 | 0.00123 ± 0.00015 |
| G41A G66U C70A | 0.000127 ± 3e-05 |  |  | 9.26e-05 ± 3.3e-05 | 6.32e-05 ± 2.8e-05 | 0.000131 ± 2e-05 |  |
| C16U A42G | 0.0195 ± 0.0085 |  | 0.00221 ± 0.00057 | 0.00699 ± 0.0019 | 0.00906 ± 0.0027 | 0.0355 ± 0.0076 | 0.000669 ± 0.0001 |
| G37A U65A | 0.000179 ± 2.2e-05 | 4340 ± 1300 |  |  | 7.66e-05 ± 1.9e-05 | 0.000124 ± 1.4e-05 |  |
| G32C C61G | < 1e-05 |  |  | < 1e-05 |  |  | < 1e-05 |
| U31G C67A | 0.00185 ± 0.00043 | 740 ± 270 | 0.000285 ± 6.9e-05 | 0.000858 ± 0.00013 | 0.00123 ± 0.00024 | 0.00286 ± 0.00065 | 0.000107 ± 1.8e-05 |
| G29U U45C | 0.000348 ± 1.1e-05 | 2130 ± 200 |  | 7.89e-05 ± 3.4e-05 | 0.000204 ± 0.0001 | 0.000286 ± 4.9e-05 |  |
| A39U U54C | 0.0342 ± 0.014 |  |  | 0.00436 ± 0.00054 | 0.00989 ± 0.0032 | 0.0285 ± 0.0042 | 0.000447 ± 5e-05 |
| G7U A36C A48U | < 1e-05 |  |  | < 1e-05 |  |  |  |
| U49C C58G | < 1e-05 |  |  |  |  | < 1e-05 |  |

| Variant | kcat (glucosamine-6-phosphate [1]) [s⁻¹] | KM (glucosamine-6-phosphate [2]) [µM] | self-cleavage kobs at 160 uM GlcN6P (glucosamine-6-phosphate [3]) [s⁻¹] | self-cleavage kobs at 640 uM GlcN6P (glucosamine-6-phosphate [4]) [s⁻¹] | self-cleavage kobs at 2500 uM GlcN6P (glucosamine-6-phosphate [5]) [s⁻¹] | self-cleavage kobs at 10000 uM GlcN6P (glucosamine-6-phosphate [6]) [s⁻¹] | self-cleavage kobs at 40 uM GlcN6P (glucosamine-6-phosphate [7]) [s⁻¹] |
| --- | --- | --- | --- | --- | --- | --- | --- |
| A39U G66U | 0.0039 ± 0.0011 | 2010 ± 860 | 0.000292 ± 5.6e-05 | 0.000735 ± 8.7e-05 | 0.0018 ± 0.00025 | 0.00372 ± 0.00032 | 0.000107 ± 1e-05 |
| U46C A52U | 0.0006 ± 0.00022 |  |  | 3.24e-05 ± 1.6e-05 | 6.32e-05 ± 1.1e-05 | 0.000199 ± 2.3e-05 | < 1e-05 |
| G13A A15G | 0.000875 ± 0.00018 | 1840 ± 670 | 6.23e-05 ± 1.3e-05 | 0.000327 ± 5.6e-05 | 0.000431 ± 7.3e-05 | 0.000784 ± 0.00011 |  |
| G29C G32U | 0.000823 ± 0.00021 | 7540 ± 2900 |  |  | 0.000226 ± 6.2e-05 | 0.000448 ± 0.00016 |  |
| G41U U46C | 8.91e-05 ± 1.3e-06 | 676 ± 50 |  | 4.34e-05 ± 1.9e-05 | 7.05e-05 ± 1.8e-05 | 8.33e-05 ± 1.3e-05 |  |
| U54C C70U | 0.00794 ± 0.0014 | 507 ± 130 | 0.00162 ± 0.00035 | 0.00435 ± 0.0008 |  | 0.00879 ± 0.0016 | 0.000628 ± 8e-05 |
| A33U U55A | 0.000138 ± 2.3e-05 | 2730 ± 1200 |  |  | 7.49e-05 ± 6.9e-06 | 0.000105 ± 7.9e-06 |  |
| G41U A42C | 1.89e-05 ± 1.4e-06 | 2750 ± 590 | < 1e-05 |  |  |  | < 1e-05 |
| A14G C58U | 0.000263 ± 4.8e-05 |  |  |  | 5.32e-05 ± 1.9e-05 | 0.000129 ± 2.9e-05 | < 1e-05 |
| A14C U47A | 0.00403 ± 0.00081 | 2760 ± 760 | 0.000213 ± 3.2e-05 | 0.000676 ± 8.4e-05 | 0.00184 ± 0.0002 | 0.00348 ± 0.00048 | 7.39e-05 ± 9.6e-06 |
| A12C G62U C70G | 2.02e-05 ± 4.5e-06 |  |  |  |  |  |  |
| A15U U69A | 7.22e-05 ± 1.3e-05 |  |  | 4.48e-05 ± 1.1e-05 | 8.33e-05 ± 1e-05 | 5.39e-05 ± 1.2e-05 |  |
| A12C C50U | 0.000203 ± 3.3e-05 | 4750 ± 1100 |  |  | 7.01e-05 ± 1.5e-05 |  |  |
| G29C G41U | 5.56e-05 ± 4e-07 | 2090 ± 57 |  |  | 3.01e-05 ± 1.1e-05 | 4.6e-05 ± 7.7e-06 |  |
| U30A C71A | 0.00089 ± 0.00018 | 603 ± 230 |  | 0.000632 ± 0.0002 | 0.000946 ± 0.00022 | 0.00072 ± 0.00016 | 5.08e-05 ± 1.3e-05 |
| A12G U69C | 0.000893 ± 0.00026 | 3900 ± 1900 |  | 0.000152 ± 2e-05 | 0.000243 ± 5.4e-05 | 0.0007 ± 8.2e-05 |  |
| C11A U56C | 2.55e-05 ± 1e-05 |  | < 1e-05 |  | 4.6e-05 ± 2.2e-05 |  | < 1e-05 |
